The assay concerns the target recombinant truncated LvAPN1-His (N-terminal region of Litopenaeus vannamei aminopeptidase N1 with the Cry toxin binding region and the active site of the peptidase-M1 domain) (Litopenaeus vannamei). In words: ELISA; 20 ug purified truncated rLvAPN1 coated overnight in 0.1 M carbonate/bicarbonate buffer pH 9.6 at 4 C; blocked with 0.5% BSA in TBS pH 8.0; rPirA^vp, rPirB^vp or rGST at 0-10 uM in TBS incubated at 4 C overnight; detected with rabbit anti-PirA^vp or anti-PirB^vp polyclonal antibody and HRP-conjugated secondary antibody, A450; one-site binding model; apparent Kd.

From article PMC8041169 come the findings set out here.

Consider “recombinant PirA^vp-His toxin subunit of Vibrio parahaemolyticus (VP_AHPND) (natural protein)”, for which the Kd was determined as 3.2 µM.
As for “recombinant PirB^vp-GST toxin subunit of Vibrio parahaemolyticus (VP_AHPND) (natural protein)”, the Kd turned out to be 0.5 µM.
